Reference: patent US20150086555A1 (THERACLONE SCIENCES, published 2015)

Tests used:
[1] = target: hemagglutinin on live influenza A virus, A/California/4/09 H1N1 (Influenza A virus …); assay: cell-based or functional assay
[2] = target: hemagglutinin on whole influenza A virions, A/Wisconsin/67/05 H3N2 (Influenza A virus …); assay: cell-based or functional assay
[3] = target: hemagglutinin on whole influenza A virions, A/Solomon Islands/3/06 H1N1 (Influenza A virus A/Solomon …); assay: cell-based or functional assay
[4] = target: recombinant soluble homotrimeric HA, A/Hong Kong/156/97 H5N1 (Influenza A virus A/Hong Kong/156/97 …); assay: microarray, transfection SN IgG, trimeric HA
[5] = target: recombinant soluble homotrimeric HA, A/swine/Ontario/01911-2/99 H4N6 (Influenza A virus …); assay: microarray, transfection SN IgG, trimeric HA
[6] = target: recombinant soluble homotrimeric HA, A/California/4/09 H1N1 (Influenza A virus …); assay: microarray, transfection SN IgG, trimeric HA
[7] = target: recombinant soluble homotrimeric HA, A/chicken/Vietnam/NCVD-016/08 H5N1 (Influenza A virus …); assay: microarray, transfection SN IgG, trimeric HA
[8] = target: recombinant soluble homotrimeric HA, A/northern shoveler/California/HKWF115/07 H6N4 (Influenza A virus A/northern …); assay: microarray, transfection SN IgG, trimeric HA
[9] = target: recombinant soluble homotrimeric HA, A/Anhui/1/05 H5N1 (Influenza A virus A/Anhui/1/2005(H5N1)); assay: microarray, transfection SN IgG, trimeric HA
[10] = target: recombinant soluble homotrimeric HA, A/South Carolina/1/18 H1N1 (Influenza A virus A/South Carolina/1/18 …); assay: microarray, transfection SN IgG, trimeric HA
[11] = target: recombinant soluble homotrimeric HA, A/Wisconsin/67/05 H3N2 (Influenza A virus …); assay: microarray, transfection SN IgG, trimeric HA
[12] = target: recombinant soluble homotrimeric HA, A/Japan/305/57 H2N2 (Influenza A virus A/Japan/305/1957(H2N2)); assay: microarray, transfection SN IgG, trimeric HA
[13] = target: recombinant soluble homotrimeric HA, A/Egypt/3300-NAMRU3/08 H5N1 (Influenza A virus …); assay: microarray, transfection SN IgG, trimeric HA
[14] = target: recombinant soluble homotrimeric HA, A/Vietnam/1203/04 H5N1 (Influenza A virus …); assay: microarray, transfection SN IgG, trimeric HA
[15] = target: recombinant soluble homotrimeric HA, A/Indonesia/5/05 H5N1 (Influenza A virus …); assay: microarray, transfection SN IgG, trimeric HA
[16] = target: recombinant soluble homotrimeric HA, A/Netherlands/219/03 H7N7 (Influenza A virus …); assay: microarray, transfection SN IgG, trimeric HA
[17] = target: recombinant soluble homotrimeric HA, A/Solomon Islands/3/06 H1N1 (Influenza A virus A/Solomon …); assay: microarray, transfection SN IgG, trimeric HA
[18] = target: recombinant soluble homotrimeric HA, A/duck/Yangzhou/02/05 H8N4 (Influenza A virus …); assay: microarray, transfection SN IgG, trimeric HA
[19] = target: recombinant soluble homotrimeric HA of A/chicken/Vietnam/NCVD-016/08 (H5N1) (Influenza A virus …); assay: HA microarray, BCC supernatant
[20] = target: recombinant soluble homotrimeric HA of A/Solomon Islands/3/06 (H1N1) (Influenza A virus A/Solomon …); assay: HA microarray, BCC supernatant
[21] = target: recombinant soluble homotrimeric HA of A/swine/Ontario/01911-2/99 (H4N6) (Influenza A virus …); assay: HA microarray, BCC supernatant
[22] = target: recombinant soluble homotrimeric HA of A/Netherlands/219/03 (H7N7) (Influenza A virus …); assay: HA microarray, BCC supernatant
[23] = target: recombinant soluble homotrimeric HA of A/Vietnam/1203/04 (H5N1) (Influenza A virus …); assay: HA microarray, BCC supernatant
[24] = target: recombinant soluble homotrimeric HA of A/Anhui/1/05 (H5N1) (Influenza A virus A/Anhui/1/2005(H5N1)); assay: HA microarray, BCC supernatant
[25] = target: recombinant soluble homotrimeric HA of A/Japan/305/57 (H2N2) (Influenza A virus A/Japan/305/1957(H2N2)); assay: HA microarray, BCC supernatant
[26] = target: recombinant soluble homotrimeric HA of A/Wisconsin/67/05 (H3N2) (Influenza A virus …); assay: HA microarray, BCC supernatant
[27] = target: recombinant soluble homotrimeric HA of A/northern shoveler/California/HKWF115/07 (H6) (Influenza A virus A/northern …); assay: HA microarray, BCC supernatant
[28] = target: recombinant soluble homotrimeric HA of A/California/4/09 (H1N1) (Influenza A virus …); assay: HA microarray, BCC supernatant
[29] = target: recombinant soluble homotrimeric HA of A/Indonesia/5/05 (H5N1) (Influenza A virus …); assay: HA microarray, BCC supernatant
[30] = target: recombinant soluble homotrimeric HA of A/duck/Yangzhou/02/05 (H8N4) (Influenza A virus …); assay: HA microarray, BCC supernatant
[31] = target: recombinant soluble homotrimeric HA of A/Hong Kong/2108/03 (H9N2) (Influenza A virus A/HK/2108/2003(H9N2)); assay: HA microarray, BCC supernatant
[32] = target: recombinant trimeric HA of H1N1 A/California/04/09 (Influenza A virus A/California/04/2009 …)

B1: TCN-557 (5081_A04) (antibody, V domains shown)
VH: QVQLVQSGAEVKKPGASVKVSCKASGHTFTGYYIHWVRQAPGQGLEWMGWINPDSGATSSAQNFQGRVTMTGDTSSSTAYMELSRLSFDDTAVYYCARVLFTSPFDFWGEGTLVTVSS
VL: QAVVTQEPSLAVSPGGTVTLTCGSSTGAVTRGHYPYWFQQKPGQAPRALIYDSAGNRHSWTPARFSGSLLGGKAALTLSGAQPEDEAEYYCLLSYSGVWVFGGGTKLTVL
- % Neutralization [1]: 10%
- % Neutralization [2]: 0%
- % Neutralization [3]: 7%

B2: TCN-556 (5089_K12) (antibody, V domains shown)
VH: QVQLVQSGAEVKKPGASVKVSCKASGYTFIGYDMHWVRQAPGQGLEWMGWINAKRGGTNYAQKFQGRVTMTRDTSISTAYMELNSLRSDDTAVYYCARGVGSRTTIFGVLNPEFDYWGQGTLVTVSS
VL: QSALTQPPSASGSPGQSVTISCTGSSSDVGGYDYVSWYQQHPGKAPKLLIYEVTKRPSGVPDRFSGSKSGNTASLTVSGLQAEDEADYYCSSYAGNYNHVFGPGTKVTVL
- % Neutralization [1]: 0%
- % Neutralization [2]: 15%
- % Neutralization [3]: 0%
- Trimeric HA Binding: RLU [4]: 24600 RLU
- Trimeric HA Binding: RLU [5]: 19300 RLU
- Trimeric HA Binding: RLU [6]: 20900 RLU
- Trimeric HA Binding: RLU [7]: 22700 RLU
- Trimeric HA Binding: RLU [8]: 34800 RLU
- Trimeric HA Binding: RLU [9]: 13800 RLU
- Trimeric HA Binding: RLU [10]: 32700 RLU
- Trimeric HA Binding: RLU [11]: 44700 RLU
- Trimeric HA Binding: RLU [12]: 22800 RLU
- Trimeric HA Binding: RLU [13]: 16600 RLU
- Trimeric HA Binding: RLU [14]: 17400 RLU
- Trimeric HA Binding: RLU [15]: 15200 RLU
- Trimeric HA Binding: RLU [16]: 43600 RLU
- Trimeric HA Binding: RLU [17]: 23400 RLU
- Trimeric HA Binding: RLU [18]: 22400 RLU

B3: TCN-556 (5089_K12) (antibody, V domains shown)
VH: B2 VH
VL: B2 VL
- Trimeric HA Binding: RLU [19]: 8800 RLU
- Trimeric HA Binding: RLU [20]: 2850 RLU
- Trimeric HA Binding: RLU [21]: 5600 RLU
- Trimeric HA Binding: RLU [22]: 10600 RLU
- Trimeric HA Binding: RLU [23]: 13800 RLU
- Trimeric HA Binding: RLU [24]: 3700 RLU
- Trimeric HA Binding: RLU [25]: 5610 RLU
- Trimeric HA Binding: RLU [26]: 9320 RLU
- Trimeric HA Binding: RLU [27]: 11900 RLU
- Trimeric HA Binding: RLU [28]: 14600 RLU
- Trimeric HA Binding: RLU [29]: 8450 RLU
- Trimeric HA Binding: RLU [30]: 16900 RLU
- Trimeric HA Binding: RLU [31]: 7410 RLU

B4: TCN-558 (5248_H10b) (antibody, V domains shown)
VH: QVQLVQSGSEVKKPGTSVKVSCTASGSVFTNYGISWVRQAPGQGLEWMGGIIPLFGAAKYAQKFQGRVTITADESTKTVYMELSRLTSKDTAIYFCAKAPRVYEYYFDQWGQGTPVTVSS
VL: EIVMTQFPATLSVSPGERVTLSCRASQSVSNNLAWYQQKPGQPPRLLIYDASTRATGVPAKFSGTGSGTEFTLSISSLQSEDFAVYYCQQYHNWPPSYSFGLGTKLEIK
- % Neutralization [1]: 96%

B5: TCN-555 (5246_L16) (antibody, V domains shown)
VH: QVQLVQSGAEVKRPGSSVKVSCTASGGIFRKNAISWVRQAPGQGLEWMGGIIAVFNTANYAQKFQNRVKITADESGNTAYMELSSLTSDDTAVYYCASHPKYFYGSGSYPDFWGQGTLVTVSS
VL: QSALTQPRSVSGSPGQSITISCTGGSSDIGASNSVSWYQQHPGKAPKLVIFDVTERPSGVPHRFSGSKSGNTASLTVSGLQPDDEADYFCCAYGGKYLVVFGGGTKVTVL
- % Neutralization [1]: 89%

B6: TCN-549 (5092_P04) (antibody, V domains shown)
VH: QVQLVQSGAEVKKPGASVKVSCKASGYTFTGYYMHWVRQAPGQGLEWMGWINPNSGDTNYAQKFQGRVTMTRDTSITTAYMELSSLRSDDTAVYYCARDSPYSSSWSFFDYWGQGPLVTVSS
VL: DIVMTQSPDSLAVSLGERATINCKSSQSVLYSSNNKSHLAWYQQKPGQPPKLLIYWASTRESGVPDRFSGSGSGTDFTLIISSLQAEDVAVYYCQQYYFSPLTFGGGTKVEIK
- % Neutralization [1]: 0%
- % Neutralization [2]: 100%
- % Neutralization [3]: 0%

B7: TCN-560 (5084_P10) (antibody, V domains shown)
VH: EVQLVESGGGLVQPGGSLRLSCAASGFIFRNYWMSWVRQAPGKGLEWVANIKQDGREKYYVDSLRGRVNISRDNAENSLYLHMNSLRVEDTAVYFCARARMVVVTGDGFDVWGHGTMVTVSS
VL: DIQMTQSPSSLSASVGDRVTITCRASQNIKRYFNWYQQKPGKAPKLLIYAASNLENGVPSRFSGSGSGTDFTLTISSLQPEDFATYYCQQSFSKSWTFGQGTNVDIK
- Trimeric HA Binding: RLU [19]: 46000 RLU
- Trimeric HA Binding: RLU [20]: 38800 RLU
- Trimeric HA Binding: RLU [21]: 41600 RLU
- Trimeric HA Binding: RLU [22]: 48500 RLU
- Trimeric HA Binding: RLU [23]: 44000 RLU
- Trimeric HA Binding: RLU [24]: 49100 RLU
- Trimeric HA Binding: RLU [25]: 46700 RLU
- Trimeric HA Binding: RLU [26]: 49100 RLU
- Trimeric HA Binding: RLU [27]: 42300 RLU
- Trimeric HA Binding: RLU [28]: 49200 RLU
- Trimeric HA Binding: RLU [29]: 35900 RLU
- Trimeric HA Binding: RLU [30]: 44700 RLU
- Trimeric HA Binding: RLU [31]: 49400 RLU

B8: TCN-548 (5092_P01) (antibody, V domains shown)
VH: QVQLQESGPGLVKPSETLSLTCTVSSGPMSDYYWSWIRQPPGKGLEWIGHVSVSHGGRTKSNPSVMSRVTISVETSKNQFSLKLTSVTAADTAVYYCARLNYYDRSGYHSPDGPSNNWFDPWGQGTLVTVSS
VL: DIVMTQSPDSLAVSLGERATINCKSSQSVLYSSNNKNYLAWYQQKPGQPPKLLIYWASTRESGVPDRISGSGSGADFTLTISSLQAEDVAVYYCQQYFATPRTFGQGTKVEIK
- % Neutralization [1]: 0%
- % Neutralization [2]: 96%
- % Neutralization [3]: 0%

B9: Fab fragment of TCN-533 (5256_A17a) (Fab, V domains shown)
VH: QVQLVQSGADVKKPGSSVTVSCKASGGSFSNYGINWVRQAPGQGLEWMGGIIPLINAPNYAPKFQGRVTITADMFSNIVSLQLTSLRTDDTAVYYCARRKMTTAIDYWGQGTLVTVSS
VL: QPVLTQPPSASASLGASVTLTCTLSSAYSNYKVDWYQQRPGKGPRFVMRVGTGGIVGSKGDGIPDRFSVLGSGLNRYLTIKNIQEEDESDYHCGADHGSGSNFVSPYVFGGGTKLTVL
- Kd [32]: 0.129 nM
- koff [32]: 8.2e-05 s⁻¹
- kon [32]: 635000 M⁻¹ s⁻¹

B10: TCN-547 (5092_F11) (antibody, V domains shown)
VH: QVQLQESGPGLVKPSQTLSLTCTVSGDSISSVDHYWSWIRQHPVKGLEWIGFMYYSASTYYNPSLKSRVTISTDTSKNQFSLRLSSVTAADTAVYYCARGTCAGDCSLHYYYYGLDVWGQGRTVTVSS
VL: DIQMTQSPSSLSASVGDRVTITCRASQSISSYLNWYQHKPGKAPKVLMYAVSILQSGVPSRFSGSGSGADFTLTISSLQPEDFATYYCQQSYSSPLTFGGGTKVEIK
- % Neutralization [1]: 0%
- % Neutralization [2]: 88%
- % Neutralization [3]: 0%
